{"source": "ChEMBL document CHEMBL1773060", "about": "“Two-step synthesis of novel, bioactive derivatives of the ubiquitous cofactor nicotinamide adenine dinucleotide (NAD)” (J Med Chem, 2011)", "proteins": {"B1": {"name": "NAD-dependent protein deacetylase sirtuin-1 (Homo sapiens), Q96EB6 (protein)", "chain": "MADEAALALQPGGSPSAAGADREAASSPAGEPLRKRPRRDGPGLERSPGEPGGAAPEREVPAAARGCPGAAAAALWREAEAEAAAAGGEQEAQATAAAGEGDNGPGLQGPSREPPLADNLYDEDDDDEGEEEEEAAAAAIGYRDNLLFGDEIITNGFHSCESDEEDRASHASSSDWTPRPRIGPYTFVQQHLMIGTDPRTILKDLLPETIPPPELDDMTLWQIVINILSEPPKRKKRKDINTIEDAVKLLQECKKIIVLTGAGVSVSCGIPDFRSRDGIYARLAVDFPDLPDPQAMFDIEYFRKDPRPFFKFAKEIYPGQFQPSLCHKFIALSDKEGKLLRNYTQNIDTLEQVAGIQRIIQCHGSFATASCLICKYKVDCEAVRGDIFNQVVPRCPRCPADEPLAIMKPEIVFFGENLPEQFHRAMKYDKDEVDLLIVIGSSLKVRPVALIPSSIPHEVPQILINREPLPHLHFDVELLGDCDVIINELCHRLGGEYAKLCCNPVKLSEITEKPPRTQKELAYLSELPPTPLHVSEDSSSPERTSPPDSSVIVTLLDQAAKSNDDLDVSESKGCMEEKPQEVQTSRNVESIAEQMENPDLKNVGSSTGEKNERTSVAGTVRKCWPNRVAKEQISRRLDGNQYLFLPPNRYIFHGAEVYSDSEDDVLSSSSCGSNSDSGTCQSPSLEEPMEDESEIEEFYNGLEDEPDVPERAGGAGFGTDGDDQEAINEAISVKQEVTDMNYPSNKS"}}, "substrate": "NC(=O)c1ccc[n+]([C@@H]2O[C@H](COP(=O)([O-])OP(=O)(O)OC[C@H]3O[C@@H](n4cnc5c(N)ncnc54)[C@H](O)[C@@H]3O)[C@@H](O)[C@H]2O)c1", "assay": "Activity at human SIRT1 assessed as ADP-ribosyltransferase activity", "data": [{"protein": "B1", "values": [{"measurement": "Km", "result": 80, "unit": "µM"}]}]}
